Measurements as given in patent US20140157444A1.

What was measured:
[1] = molecular target: Myc-tagged estrogen receptor beta (UniProt O08537); test: cell-based or functional assay
GFP-ERα (human) = GFP-ERα (human) (UniProt P03372); test: cell-based or functional assay
GFP-ERα (human), sequence (P03372 whole entry): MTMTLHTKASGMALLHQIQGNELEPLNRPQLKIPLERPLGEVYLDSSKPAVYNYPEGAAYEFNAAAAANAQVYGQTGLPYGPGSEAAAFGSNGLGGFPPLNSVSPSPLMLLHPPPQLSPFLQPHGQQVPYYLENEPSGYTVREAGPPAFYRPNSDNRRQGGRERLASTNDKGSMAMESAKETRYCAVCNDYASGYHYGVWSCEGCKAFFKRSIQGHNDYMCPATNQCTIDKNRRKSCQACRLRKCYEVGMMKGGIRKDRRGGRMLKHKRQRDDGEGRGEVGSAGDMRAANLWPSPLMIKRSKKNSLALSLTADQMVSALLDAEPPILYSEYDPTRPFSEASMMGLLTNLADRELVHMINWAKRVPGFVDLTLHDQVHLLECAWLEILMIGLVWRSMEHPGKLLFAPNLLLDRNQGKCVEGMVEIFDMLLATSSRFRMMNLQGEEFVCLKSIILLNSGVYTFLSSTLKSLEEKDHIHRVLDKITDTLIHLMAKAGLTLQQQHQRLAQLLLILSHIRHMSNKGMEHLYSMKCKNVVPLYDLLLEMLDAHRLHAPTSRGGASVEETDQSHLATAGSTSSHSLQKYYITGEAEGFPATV

Myc-tagged estrogen receptor beta, sequence (O08537 whole entry): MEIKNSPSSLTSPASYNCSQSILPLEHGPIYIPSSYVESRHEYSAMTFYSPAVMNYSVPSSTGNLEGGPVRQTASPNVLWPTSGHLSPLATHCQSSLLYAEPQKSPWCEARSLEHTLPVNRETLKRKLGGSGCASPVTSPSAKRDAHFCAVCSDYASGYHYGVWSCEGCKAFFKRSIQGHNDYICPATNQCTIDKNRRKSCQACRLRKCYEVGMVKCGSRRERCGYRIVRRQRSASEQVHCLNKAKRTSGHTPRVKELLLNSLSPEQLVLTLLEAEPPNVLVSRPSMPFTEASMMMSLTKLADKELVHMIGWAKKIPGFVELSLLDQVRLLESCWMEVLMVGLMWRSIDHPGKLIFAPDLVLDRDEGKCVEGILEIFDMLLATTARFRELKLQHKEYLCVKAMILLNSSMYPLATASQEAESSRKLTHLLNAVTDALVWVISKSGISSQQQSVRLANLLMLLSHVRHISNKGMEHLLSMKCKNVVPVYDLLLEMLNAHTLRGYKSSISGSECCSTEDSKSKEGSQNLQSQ

ERE-driven luciferase activity (ERE-TATA-LUC reporter in HEK 293 cells) (fold reduction) [1]: 2
ERE-driven luciferase activity (ERE-TATA-LUC reporter in HEK 293 cells) (fold reduction) (GFP-ERα (human)): 2
Substance: WDR13 (overexpressed in the luciferase assay, construct not stated) (from UniProt Q91V09 1-485)
